# Laboratory results taken from the supplement of paper PMC9112550, “Optimization of the antimicrobial peptide Bac7 by deep mutational scanning” (BMC Biology, 2022).
# Test system: Escherichia coli TOP10
# Assay: shrunken log2 fold change of peptide-encoding DNA abundance (4.5 h post-induction vs induction); higher = less antimicrobial activity (less host growth inhibition)
# Details: time post-induction: 4.5 h; library: site-saturation at positions 5, 18, 19, 20
# 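Also: peptides expressed intracellularly from a pBAD plasmid library in pooled LB shake-flask culture, induced with 0.3% L-arabinose, DNA abundance read by NGS, three biological replicates, DESeq2 with apeglm shrinkage.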
row,Sequence,shrunken log2 fold change
1,RRIRFRPPRLPRPRPRPKGEPRP,0.35
2,RRIRCRPPRLPRPRPRPMQVPRP,-0.0376
3,RRIRIRPPRLPRPRPRPVSIPRP,-0.624
4,RRIRCRPPRLPRPRPRPCFVPRP,-0.235
5,RRIRWRPPRLPRPRPRPHFWPRP,0.27
6,RRIRDRPPRLPRPRPRPSRWPRP,0.0623
7,RRIRCRPPRLPRPRPRPKFEPRP,0.00386
8,RRIRARPPRLPRPRPRPVEVPRP,0.236
9,RRIRARPPRLPRPRPRPLFNPRP,-0.064
10,RRIRTRPPRLPRPRPRPPGNPRP,-0.0517
11,RRIRNRPPRLPRPRPRPNQNPRP,0.337
12,RRIRPRPPRLPRPRPRPSGIPRP,-0.126
13,RRIRFRPPRLPRPRPRPYFFPRP,-0.544
14,RRIRKRPPRLPRPRPRPTCQPRP,0.333
15,RRIRLRPPRLPRPRPRPWLHPRP,-0.0284
16,RRIRWRPPRLPRPRPRPQVQPRP,0.115
17,RRIRDRPPRLPRPRPRPNSQPRP,-0.283
18,RRIRTRPPRLPRPRPRPFAMPRP,-0.348
19,RRIRDRPPRLPRPRPRPTYCPRP,-0.27
20,RRIRIRPPRLPRPRPRPEPIPRP,0.185

row,Sequence,shrunken log2 fold change
1,RRIRVRPPRLPRPRPRPCHLPRP,-0.00192
2,RRIRVRPPRLPRPRPRPFCLPRP,-0.357
3,RRIRQRPPRLPRPRPRPLPGPRP,0.0661
4,RRIRLRPPRLPRPRPRPENMPRP,-0.4
5,RRIRPRPPRLPRPRPRPKYMPRP,1.72
6,RRIRSRPPRLPRPRPRPTRGPRP,0.581
7,RRIRYRPPRLPRPRPRPQEWPRP,-0.000687
8,RRIRHRPPRLPRPRPRPQCIPRP,-0.235
9,RRIRQRPPRLPRPRPRPVDQPRP,0.0619
10,RRIRDRPPRLPRPRPRPAPMPRP,0.445
11,RRIRARPPRLPRPRPRPRGKPRP,0.376
12,RRIRFRPPRLPRPRPRPAWLPRP,0.231
13,RRIRLRPPRLPRPRPRPEDKPRP,-0.0384
14,RRIRGRPPRLPRPRPRPWWQPRP,0.644
15,RRIRHRPPRLPRPRPRPHIYPRP,-0.169
16,RRIRKRPPRLPRPRPRPRLPPRP,0.768
17,RRIRSRPPRLPRPRPRPWCQPRP,-0.119
18,RRIRTRPPRLPRPRPRPRHRPRP,0.0476
19,RRIRGRPPRLPRPRPRPNSYPRP,-0.0855
20,RRIRKRPPRLPRPRPRPKDHPRP,0.308

row,Sequence,shrunken log2 fold change
1,RRIRFRPPRLPRPRPRPGSVPRP,-0.147
2,RRIRKRPPRLPRPRPRPDSRPRP,-0.188
3,RRIRSRPPRLPRPRPRPWMMPRP,-0.165
4,RRIRMRPPRLPRPRPRPISVPRP,0.103
5,RRIRLRPPRLPRPRPRPICDPRP,0.0695
6,RRIRGRPPRLPRPRPRPNHPPRP,0.0349
7,RRIRCRPPRLPRPRPRPLFQPRP,-0.417
8,RRIRHRPPRLPRPRPRPEHYPRP,0.504
9,RRIRRRPPRLPRPRPRPVECPRP,-0.0238
10,RRIRWRPPRLPRPRPRPVRNPRP,0.432
11,RRIRKRPPRLPRPRPRPGHVPRP,-0.165
12,RRIRKRPPRLPRPRPRPVQAPRP,0.741
13,RRIRPRPPRLPRPRPRPRMSPRP,0.232
14,RRIRNRPPRLPRPRPRPPFSPRP,0.032
15,RRIRPRPPRLPRPRPRPDSPPRP,0.0152
16,RRIRTRPPRLPRPRPRPSDDPRP,-0.182
17,RRIRWRPPRLPRPRPRPVRHPRP,0.245
18,RRIRQRPPRLPRPRPRPKYCPRP,0.0636
19,RRIRLRPPRLPRPRPRPDLEPRP,0.0992
20,RRIRYRPPRLPRPRPRPMDMPRP,-0.00926
